Here are results for three proteins from doi:10.1101/190033 (bioRxiv, 2017).

Series [1] concerns the molecule itself. The series is described as follows: SEC. For orientation: In gel filtration, larger molecules generally elute earlier.
The series “GEMMA” deals with the molecule itself. Kind of series: GEMMA.
The series “crystal structure” concerns the molecule itself. The series is described as follows: crystal structure.
Series [2] concerns the molecule itself. The series is described as follows: SEC. The source holds these as a separate data set.

B1: Leeuwenhoekiella blandensis class I ribonucleotide reductase radical-generating subunit NrdBi (NrdB), wild type (enzyme, Leeuwenhoekiella blandensis MED217, UniProt A3XHF9 1-427, looked up)
chain: MSSQEIKKIIKRDYSTAPFVLEKITNAIANAMAALGHGSEQDAKLISMQVYESLLNNKEQESEYIPTVEQVQDMVEDKLMSSEFHDVAKAYIIYRNKRALERKTNIFEKRINLKPYEYPELNEYVAAIRHSYWIHTEFNFTSDIQDFKTGLSEVERSAIKNTMLAISQIEVAVKTFWGDVHHRLPKPEIAAVGATFAESEVRHHDAYSHLLEILGLNEEFKELKKKPVIMKRVHYLETSLKHAKSDDDREYTESILLFALFIEHVSLFSQFLIIMAFNKHKNMLKGISNAVEATSKEEQIHGDFGVDIINIIKKENPEWFDEEHNNLIKEMCLNSFEAESKVVDWIFEKGELDFLPKAVINEFLKNRFNKSLEAIGLEKLFDIDEALLQETEWFDDEIIGTKHGDFFVKRSINYSKRTQSITSDDLF
The stoichiometry N is a count of units in the complex or per binding partner. Consider B1, for which the entries for the “stoichiometry N” value in “SEC [1]” and in the series “GEMMA” were 2 and 4, respectively.

B2: Leeuwenhoekiella blandensis NrdB, thrombin-cleaved (hexahistidine tag removed), used for crystallization (enzyme, Leeuwenhoekiella blandensis MED217)
chain: GSHMSSQEIKKIIKRDYSTAPFVLEKITNAIANAMAALGHGSEQDAKLISMQVYESLLNNKEQESEYIPTVEQVQDMVEDKLMSSEFHDVAKAYIIYRNKRALERKTNIFEKRINLKPYEYPELNEYVAAIRHSYWIHTEFNFTSDIQDFKTGLSEVERSAIKNTMLAISQIEVAVKTFWGDVHHRLPKPEIAAVGATFAESEVRHHDAYSHLLEILGLNEEFKELKKKPVIMKRVHYLETSLKHAKSDDDREYTESILLFALFIEHVSLFSQFLIIMAFNKHKNMLKGISNAVEATSKEEQIHGDFGVDIINIIKKENPEWFDEEHNNLIKEMCLNSFEAESKVVDWIFEKGELDFLPKAVINEFLKNRFNKSLEAIGLEKLFDIDEALLQETEWFDDEIIGTKHGDFFVKRSINYSKRTQSITSDDLF
For the protein B2, in the series “crystal structure”, the “stoichiometry N” value amounted to 4.

B3: Leeuwenhoekiella blandensis class I ribonucleotide reductase catalytic subunit NrdAi (NrdA) (enzyme, Leeuwenhoekiella blandensis MED217, UniProt A3XHF8 1-600, looked up)
chain: MRENTTKLENSTETNVQHTKDNDLLKARRDALQDATEKNTDEPSFDWLTEHSRSFLAAGYLSEGVSAEERIREIADRAEEILRMPGFSDKFYKYMGEGYFSLASPVWSNFGKKRGLPISCFGSHIDDDMGNILYTQSEVGMMSKLGGGTSGYFGKIRHRGAAVKNNGYASGAVHIMQLFDKMVDVVSQGSVRRGRFSPYLPISHPDIKEFLEIGTEGNSIQQLTHGVTVDSTWMQEMIDGDTDKREVWAKVLQRRGEMGYPYIFYTDNANNGKPDVYKDKGHDIYASNLCTEIMLPSSDEWSFVCVLSSINVLHYDKWKNTDAVETMVCFLDAVLTEFIDKLEEYRDSDNRDHRQTFMFMERAYNFAKSNRALGLGVLGWHSLLQSKRHAFDSQEAYDLNSEIFREIKQRSYKASEELAEKFGEPETLKGYGRRNATLNAIAPTTSSAFILGQVSQGIEPIWSNVYVKDIAKIKTTIKNPFLEELFEEKGMNTPEVWRSVRDNDGSVQHLEFLTEQEKDVFKTYAEIDQMAIIYQAANRQNHIDQGQSINLLVHPDMPIKEINKIHITAWKLGLKSLYYQHSMNAAQKFKQKKECVSCEA
For B3, the “stoichiometry N” value in the series “SEC [2]” stood at 2.
